Data on 7 molecules can be found in publication PMC3936014 (Nature communications, 2014).

The target of one data set is T1, TFAM (mature) (Homo sapiens, UniProt Q00059 43-246).
T1 sequence: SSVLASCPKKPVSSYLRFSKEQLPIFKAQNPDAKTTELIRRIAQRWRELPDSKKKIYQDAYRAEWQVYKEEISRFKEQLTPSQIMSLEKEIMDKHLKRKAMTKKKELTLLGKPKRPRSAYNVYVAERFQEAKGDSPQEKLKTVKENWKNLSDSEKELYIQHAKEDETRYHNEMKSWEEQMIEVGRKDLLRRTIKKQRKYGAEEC
Description: FRET DNA bending.

The target of data set [1] is T2, TFAM (43-237) (Homo sapiens, UniProt Q00059 43-237).
T2 sequence: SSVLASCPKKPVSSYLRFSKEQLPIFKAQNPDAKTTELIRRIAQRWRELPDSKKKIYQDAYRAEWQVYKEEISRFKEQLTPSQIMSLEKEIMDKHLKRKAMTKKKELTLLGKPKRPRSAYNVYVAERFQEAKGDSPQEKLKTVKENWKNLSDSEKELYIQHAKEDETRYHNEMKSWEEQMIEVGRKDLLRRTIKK
Description: X-ray crystallography.

Data set [2] concerns the target T2, TFAM (43-237). Description: X-ray crystallography. The source holds these as a separate data set.
Data set [3] concerns the target T2, TFAM (43-237). Description: X-ray crystallography. The source holds these as a separate data set.
The data set “crystal structure” concerns the molecule itself. Description: crystal structure.

Read-outs that look alike come from different tables or passages of the source.

B1: nonspecific 22 bp FRET (dsDNA)
DNA 1: ATTCAACCAATAGCCCTGGCCG
DNA 2: CGGCCAGGGCTATTGGTTGAAT
Consider B1, for which, in the data set with TFAM (mature), the binding result is listed as “binds”.

B2: nonspecific 22 bp (ATPase6) (dsDNA)
DNA 1: ATTCAACCAATAGCCCTGGCCG
DNA 2: CGGCCAGGGCTATTGGTTGAAT
As for B2, the binding result with TFAM (43-237) [1] is recorded as “binds”.

B3: HSP1 22 bp (dsDNA)
DNA 1: GGTTGGTTCGGGGTATGGGGTT
DNA 2: AACCCCATACCCCGAACCAACC
With B3, the binding result with TFAM (43-237) [2] is “binds”.

B4: HSP1-Br 22 bp (dsDNA)
DNA 1: GGTTGGTTCGGGGTATGGGGTT
DNA 2: AACCCCATACCCCGAACCAACC
modifications: 5-bromo-dU replacing T at strand 1 position 4 (mtDNA 550)
Consider B4, for which, in the data set with TFAM (43-237) [3], the binding result was “binds”.

B5: LSP 28 bp FRET (dsDNA)
DNA 1: TGTTAGTTGGGGGGTGACTGTTAAAAGT
DNA 2: ACTTTTAACAGTCACCCCCCAACTAACA
For B5, the binding result with TFAM (mature) is reported as “binds”.

B6: HSP1 22 bp FRET (dsDNA)
DNA 1: GGTTGGTTCGGGGTATGGGGTT
DNA 2: AACCCCATACCCCGAACCAACC
B6: the binding result with TFAM (mature) is reported as “binds”.

B7: TFAM (transcription factor A, mitochondrial) lacking the last 9 residues (43-237) (domain or fragment, human, UniProt Q00059 43-237, looked up)
chain: T2 sequence
For B7, the binding result in the data set “crystal structure” is “binds”.
